Source: US20210189007A1 (BOARD OF REGENTS OF THE UNIVERSITY OF OKLAHOMA, published 2021)

Molecular target: T1, DCLK1 isoform 4 purified protein (human, UniProt O15075 314-740)
T1 construct: Purified protein used in Western blot and ELISA; also called Doublecortin-like kinase 1 isoform 4; DCLK1 purified protein
T1 sequence: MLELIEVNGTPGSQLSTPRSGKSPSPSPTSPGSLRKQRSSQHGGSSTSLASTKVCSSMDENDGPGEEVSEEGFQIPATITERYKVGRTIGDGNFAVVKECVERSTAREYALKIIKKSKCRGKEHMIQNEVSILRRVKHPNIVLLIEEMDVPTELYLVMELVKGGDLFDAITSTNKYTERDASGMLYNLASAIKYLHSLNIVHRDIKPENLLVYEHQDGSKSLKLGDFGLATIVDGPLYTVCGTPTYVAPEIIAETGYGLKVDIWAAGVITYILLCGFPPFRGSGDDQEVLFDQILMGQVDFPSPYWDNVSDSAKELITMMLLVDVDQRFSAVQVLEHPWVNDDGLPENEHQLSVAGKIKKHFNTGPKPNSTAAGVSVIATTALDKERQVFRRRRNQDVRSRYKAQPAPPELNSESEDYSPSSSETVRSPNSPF
Experiment: Western blot on purified protein

B1: CBT-15A monoclonal antibody (antibody, V domains shown)
VH: DVKLVESGGGLVKLGGSLKLSCAASGFTFSSYYMSWVRQTPEKRLELVAAINSNGGSTYYPDTVKGRFTISRDNAKNTLYLQMSSLKSEDTALYYCARHGGNYWYFDVWGAGTTVTVSS
VL: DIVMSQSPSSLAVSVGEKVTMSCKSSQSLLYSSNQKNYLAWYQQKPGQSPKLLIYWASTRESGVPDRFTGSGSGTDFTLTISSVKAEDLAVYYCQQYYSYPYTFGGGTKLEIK
notes: Mouse hybridoma antibody raised against KLH-linked immunogen no; also called CBT-15A mAB; CBT-15 mAB (A)
Q: Does B1 bind?
A: Result: binds
